Data on 8 molecules can be found in article PMC10761869 (Nature Communications, 2024).

Experiment [1] has as its target Sgt2^BFL (His6-Sgt2-LPATGG labelled with BODIPY-FL at the C-terminus). Nature of the experiment: FRET or BRET; 50–150 nM purified Sgt2^BFL-Bos1^CM complex in GET buffer chased with 2.5–30 µM CaM or with unlabeled Sgt2; recovery of donor fluorescence; intrinsic koff by extrapolation of the CaM concentration dependence to the Y-axis.
Experiment [2] has the same target. Briefly: FRET or BRET; 50–150 nM purified Sgt2^BFL-TA^CM complex in GET buffer chased with 14–28 µM cpSRP43; recovery of donor fluorescence (excitation 360 nm, emission 460 nm); TA dissociation. A general note: In BRET a luciferase serves as donor, and the signal depends on an acceptor being close.
Experiment [3] has the same target. The experiment is described as above. The source holds these as a separate data set.
The target in experiment [4] is Ssa1^TMR, TMR-labeled Ssa1(D430C) (yeast) (UniProt P10591). Nature of the experiment: FRET or BRET; 20 nM Bos1^BFL with 500 nM Ssa1^TMR, with or without 500 nM Ydj1, 5 min; excitation 485 nm; chased with cpSRP43 or a five-fold excess of unlabeled Ssa1.
Experiment [5] addresses (Sgt2-C258)XL2, BMH-crosslinked Sgt2-C258 dimer (UniProt Q12118). Nature of the experiment: cross-linking; Bos1^Bpa translated with 35S-methionine in S30 lysate in the presence of Sgt2 or Sgt2-C258; complexes purified via His6 on Sgt2, treated with 1 mM BMH; UV crosslinking, SDS-PAGE, autoradiography; time courses after adding 15–20 µM CaM (1 mM Ca(OAc)2) or 0.75 µM Get3 with 2 mM ATP, with or without 0.75 µM Get4/5.

In experiment [6] the target is His6-Sgt2 (wildtype Sgt2) (UniProt Q12118). The experiment is described as above.
Experiment [7] addresses His6-Sgt2-G258C, not crosslinked (UniProt Q12118). Briefly: cross-linking; purified Sgt2-C258-TA^Bpa complex incubated with 1 mM BMH at RT, quenched with 10 mM DTT; anti-His immunoblot. In general terms: A western blot detects proteins with antibodies after separation by electrophoresis.
Experiment [8] has the same target. Briefly: cross-linking; intradimer crosslink of Sgt2 single cysteine variants with the thiol-specific homo-bifunctional crosslinker bismaleimidohexane (BMH).
Experiment [9] concerns the target Bos1^Bpa, in vitro translated (Strep3-tagged, 35S-methionine). Briefly: pull-down + cross-linking; Bos1^Bpa translated in S30 extract in the presence of 2 µM His6-Sgt2 or Sgt2ΔN; pulldown on the strep3-tagged TA; UV crosslinking, autoradiography.
Experiment [10] addresses T1, His6-Sgt2 (wildtype Sgt2), Q12118.
T1 chain: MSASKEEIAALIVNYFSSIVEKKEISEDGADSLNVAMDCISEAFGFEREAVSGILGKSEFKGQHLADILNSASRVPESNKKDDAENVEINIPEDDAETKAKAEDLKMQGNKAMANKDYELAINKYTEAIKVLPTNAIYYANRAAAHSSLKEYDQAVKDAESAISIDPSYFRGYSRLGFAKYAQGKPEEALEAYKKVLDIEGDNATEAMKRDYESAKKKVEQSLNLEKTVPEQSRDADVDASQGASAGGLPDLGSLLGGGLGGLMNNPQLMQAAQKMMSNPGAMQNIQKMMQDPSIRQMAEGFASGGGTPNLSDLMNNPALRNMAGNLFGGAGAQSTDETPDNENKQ

The target in another experiment is T2, Ssa1 (tagless) (yeast, UniProt P10591 1-642).
T2 construct: Ssa1, the major cytosolic Hsp70 in yeast; also called Hsp70; unlabeled Ssa1; source: recombinant His6-SUMO fusion, purified (Ni Sepharose, SUMO protease, MonoQ)
T2 sequence (P10591 whole entry, the tested form may be a part): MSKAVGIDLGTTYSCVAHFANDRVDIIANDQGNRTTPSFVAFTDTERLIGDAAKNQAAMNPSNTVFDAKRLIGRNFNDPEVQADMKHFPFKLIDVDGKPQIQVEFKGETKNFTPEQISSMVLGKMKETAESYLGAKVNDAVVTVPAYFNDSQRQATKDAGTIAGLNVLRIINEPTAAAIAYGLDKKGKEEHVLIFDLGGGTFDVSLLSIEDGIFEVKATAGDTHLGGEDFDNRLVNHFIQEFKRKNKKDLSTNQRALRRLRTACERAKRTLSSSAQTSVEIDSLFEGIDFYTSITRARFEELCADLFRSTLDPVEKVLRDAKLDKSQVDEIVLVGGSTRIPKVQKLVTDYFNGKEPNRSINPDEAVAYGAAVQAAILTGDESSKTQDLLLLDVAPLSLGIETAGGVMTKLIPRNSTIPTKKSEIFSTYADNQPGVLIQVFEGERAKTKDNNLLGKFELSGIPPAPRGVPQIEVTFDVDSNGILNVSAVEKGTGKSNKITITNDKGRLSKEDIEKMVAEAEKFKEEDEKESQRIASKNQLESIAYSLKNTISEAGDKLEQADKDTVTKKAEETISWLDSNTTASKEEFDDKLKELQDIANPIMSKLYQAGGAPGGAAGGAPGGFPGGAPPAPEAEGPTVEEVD
Briefly: pull-down; TA (0.3 µM) loaded on 3 µM Ssa1 with 2 mM ATP, with or without 3 µM Ydj1, then 0.6 µM His6-Sgt2; Talon resin, GET buffer (150 mM KOAc) with 5 mM imidazole wash. The conditions noted are these: both partners purified.

A further experiment deals with T3, Ssa1 (yeast, UniProt P10591 1-642).
T3 construct: Ssa1, the major cytosolic Hsp70 of yeast; also called Hsp70; source: recombinant His6-SUMO fusion, purified (Ni Sepharose, SUMO protease, MonoQ)
T3 sequence (P10591 whole entry, the tested form may be a part): as above
Nature of the experiment: pull-down; 0.6 µM His6-Sgt2 added for 1 min to a preformed Ssa1-TA complex (0.3 µM TA, 3 µM Ssa1, 2 mM ATP, with or without 3 µM Ydj1) in GET buffer; captured on Talon resin at 4 °C, washed with GET buffer + 5 mM imidazole, eluted with 300 mM imidazole; silver stain and anti-Strep western blot. To be noted: both partners purified.

As for “Bos1^CM (Strep-SUMO-Bos1 labelled with coumarin)”, the apparent rate constant of Bos1 release from Sgt2 with 30 µM CaM in [1] is 0.91 min⁻¹. The results for the koff in experiment [1], in experiment [2] and in experiment [3] were 0.0003 s⁻¹, 0.000283 to 0.000317 s⁻¹ and 0.0003 s⁻¹, respectively. The molecule Bos1^BFL (BFL-labeled Bos1) registered a koff, slow phase (~50% of the fluorescence change) in [4] of 0.0005 s⁻¹. For “Bos1^Bpa, in vitro translated (Strep3-tagged, 35S-methionine)”, the rate constant of loss of the TA crosslink to (Sgt2-C258)XL2 on transfer to Get3 with Get4/5 in experiment [5] came to 3.5 min⁻¹. The apparent rate constant of TA loss from Sgt2 to CaM (20 µM CaM) in experiment [6] turned out to be 0.78 min⁻¹. In the case of “His6-Sgt2-G258C, not crosslinked (from UniProt Q12118 1-346) (natural protein)”, the percent crosslinked by BMH (intradimer, in the complex with TA) in experiment [7] came to 50%. Also, the BMH crosslinking efficiency (intradimer) in experiment [8] came out at 46%.

B1: His6-Sgt2ΔN (residues 96–346) (domain or fragment)
chain: AETKAKAEDLKMQGNKAMANKDYELAINKYTEAIKVLPTNAIYYANRAAAHSSLKEYDQAVKDAESAISIDPSYFRGYSRLGFAKYAQGKPEEALEAYKKVLDIEGDNATEAMKRDYESAKKKVEQSLNLEKTVPEQSRDADVDASQGASAGGLPDLGSLLGGGLGGLMNNPQLMQAAQKMMSNPGAMQNIQKMMQDPSIRQMAEGFASGGGTPNLSDLMNNPALRNMAGNLFGGAGAQSTDETPDNENKQ
As for B1, the percent of Bos1^Bpa crosslinked in [9] came out at 6%.

B2: Strep-SUMO-Bos1 (model TA substrate Bos1), unlabelled (peptide)
chain: SEQTITSINKRVFKDKLVFWIALILLIIGIYYVLKWLR
modifications: not checked
B2 returned an equilibrium of Sgt2 closing (K closing; µs-ALEX smFRET of doubly labelled Sgt2^ATTO550/ATTO647N, mpH2MM) in the purified Sgt2-TA complex; apo-Sgt2 0.221 in experiment [10] of 0.597.

B3: His6-Sgt2 (wildtype Sgt2) (natural protein, UniProt Q12118 1-346, looked up)
chain: T1 chain
notes: Sgt2, cochaperone of the GET pathway; The functional rows were measured with Sgt2 doubly labelled with ATTO550/ATTO647N at the C-terminus (His6-Sgt2-LPATGG ligated to GGGC-dye by sortase A); also called Sgt2-WT; unlabeled Sgt2; source: cells lysed with BugBuster
With B3, the percent of Bos1^Bpa crosslinked in experiment [9] is above 43%. In the experiment with Ssa1 (tagless), the binding result is listed as “binds”.

B4: His6-tagged wildtype Sgt2 (natural protein, S. cerevisiae (printed as ScSgt2), UniProt Q12118 1-346, looked up)
chain: T1 chain
notes: Sgt2 (ScSgt2); also called His6-Sgt2; His-Sgt2-WT
Regarding B4, the binding result with Ssa1 is reported as “binds”.
